Measurements as given in paper PMC11367644, “Structural basis for TNIP1 binding to FIP200 during mitophagy” (The Journal of Biological Chemistry, 2024).
Where two headings read alike, the source gives them in different places. Square brackets hold non-standard residues; d marks the D form. Ends that are not written are not given here. Peptide text beside a SMILES is read from it. pS = N[C@@H](COP(=O)(O)O)C(=O)O

Legend:
TNIP1_pS123 peptide = assay: ITC
FIP200 claw domain (WT) = biological target: T1, FIP200 claw domain (WT) (Homo sapiens, UniProt Q8TDY2); assay: ITC of TNIP1/CCPG1 FIR peptides with FIP200 claw domain WT; settings: FIP200 claw WT 0.25 mM, peptide 4 mM, 20 °C, buffer B (50 mM NaH2PO4, 150 mM NaCl, pH 7.0), single binding site model, fitted value ± SD, N.D. = no detectable binding
T1 construct: human FIP200 claw domain1490–1594 was cloned; SUMO (N, cleaved yes); made in house; host or cells: Escherichia coli Rosetta (DE3)
Description: (§1) DNA fragment of human FIP200 claw domain1490–1594 was cloned into a modified pET28a (Novagen) plasmid, which contained an N-terminal SUMO-tag and a ULP1 protease cleavage site. All mutants were generated using a MutanBEST Kit (TaKaRa) and confirmed by DNA sequencing. The proteins were expressed in Escherichia coli Rosetta (DE3) cells (Novagen) cultured in LB medium at 37 °C to A600 = 1.0 and then shifted to 16 °C for 24 h after induction with 0.2 mM IPTG. Bacterial pellets were resuspended in buffer A (50 mM NaH2PO4 and 1 M NaCl, pH 7.0) and lysed by sonication. The crude lysate was then centrifuged at 14,000 rpm for 30 min at 4 °C. The supernatant was applied to a Ni-NTA column (QIAGEN), followed by size-exclusion chromatography using a Superdex 200 (GE Healthcare) column. After cleavage with ULP1 protease overnight at 16 °C to remove the SUMO-tag, an additional purification step was performed with a HiTrap SP FF column. The purified protein was concentrated to ∼20 mg/ml in buffer B (50 mM NaH2PO4, 150 mM NaCl, pH 7.0) and stored at −80 °C.
(§2) ITC assays were performed on a Microcal PEAQ-ITC instrument (Malvern) at 20 °C. The concentrations of proteins were determined spectrophotometrically. […] Thermodynamic data were analyzed with a single binding site model using MicroCal PEAQ-ITC Analysis Software provided by the manufacturer (Malvern).

[1] = test system: FIP200 claw domain / p-CCPG1 FIR2 complex; assay: Competitive fluorescence polarization: displacement of FITC-pCCPG1 FIR2 from FIP200 claw domain; assay type: binding, human; settings: fit of Equation 3 to competitive FP data; FIP200 claw 4 μM, 50 nM FITC-pCCPG1 FIR2, buffer B, triplicate
Text: Next, we investigated the binding of TNIP1 peptides to FIP200 in distinct states while competing with p-CCPG1 FIR2 peptide. Assuming that in solution, there is a thermodynamic equilibrium as expressed in Equation 1:(1) FIP200−TNIP1_pS123⇆w2u2FIP200⇄w1u1FIP200/p−CCPG1FIR2 where u1 and u2 represent the rates of forming the FIP200/p-CCPG1 FIR2 and FIP200-TNIP1_pS123 binding complexes, respectively, and w1 or w2 is the corresponding dissociation rate, then the probability of forming FIP200/p-CCPG1 FIR2 ( P1 ) can be expressed in the following form:(2) P1=u1w2/w1w2+u1w2+[…]
We further assumed that the binding process is diffusion-controlled, meaning that u1 and u2 are proportional to the concentrations of p-CCPG1 FIR2 and TNIP1_pS123, respectively. In addition, w1 and w2 are determined by the activation barrier in the dissociation free energy profile using the transition state theory. Consequently, the following two relations hold. […]
For competitive FP experiments, FIP200 claw domain at 4 μM and 50 nM FITC-pCCPG1 FIR2 in buffer B were mixed with increasing concentrations of unlabeled TNIP1_FIR^long or TNIP1 FIR_pS123^long peptides, respectively. The samples were measured with the CLARIOsta plate reader with FITC-fluorescence polarization filter set. […]

[2] = biological target: T2, FIP200 claw domain K1569A (Homo sapiens, UniProt Q8TDY2, K1569A); assay: ITC with FIP200 claw domain mutant K1569A; settings: 20 °C, buffer B pH 7.0, N.D. = no detectable binding
T2 construct: human FIP200 claw domain1490–1594 was cloned; SUMO (N, cleaved yes); made in house; host or cells: Escherichia coli Rosetta (DE3)
T2 sequence (Q8TDY2 1490-1594 K1569A): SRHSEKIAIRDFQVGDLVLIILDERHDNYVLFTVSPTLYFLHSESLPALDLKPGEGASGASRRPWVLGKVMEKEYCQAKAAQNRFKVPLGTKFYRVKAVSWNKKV
Description: as §1, §2

[3] = biological target: T3, FIP200 claw domain R1573E (Homo sapiens, UniProt Q8TDY2, R1573E); assay: ITC with FIP200 claw domain mutant R1573E; settings: 20 °C, buffer B pH 7.0, N.D. = no detectable binding
T3 construct: human FIP200 claw domain1490–1594 was cloned; SUMO (N, cleaved yes); made in house; host or cells: Escherichia coli Rosetta (DE3)
T3 sequence (Q8TDY2 1490-1594 R1573E): as the sequence (Q8TDY2 1490-1594 K1569A) above, with A80K, R84E counted along it
Description: as §1, §2

[4] = biological target: T4, FIP200 claw domain F1574A (Homo sapiens, UniProt Q8TDY2, F1574A); assay: ITC with FIP200 claw domain mutant F1574A; settings: 20 °C, buffer B pH 7.0, N.D. = no detectable binding
T4 construct: human FIP200 claw domain1490–1594 was cloned; SUMO (N, cleaved yes); made in house; host or cells: Escherichia coli Rosetta (DE3)
T4 sequence (Q8TDY2 1490-1594 F1574A): as the sequence (Q8TDY2 1490-1594 K1569A) above, with A80K, F85A counted along it
Description: as §1, §2

[5] = biological target: T5, FIP200 claw domain F1582A (Homo sapiens, UniProt Q8TDY2, F1582A); assay: ITC with FIP200 claw domain mutant F1582A; settings: 20 °C, buffer B pH 7.0, N.D. = no detectable binding
T5 construct: human FIP200 claw domain1490–1594 was cloned; SUMO (N, cleaved yes); made in house; host or cells: Escherichia coli Rosetta (DE3)
T5 sequence (Q8TDY2 1490-1594 F1582A): as the sequence (Q8TDY2 1490-1594 K1569A) above, with A80K, F93A counted along it
Description: as §1, §2

[6] = biological target: T6, FIP200 claw domain Y1564A (Homo sapiens, UniProt Q8TDY2, Y1564A); assay: ITC with FIP200 claw domain mutant Y1564A; settings: 20 °C, buffer B pH 7.0, N.D. = no detectable binding
T6 construct: human FIP200 claw domain1490–1594 was cloned; SUMO (N, cleaved yes); made in house; host or cells: Escherichia coli Rosetta (DE3)
T6 sequence (Q8TDY2 1490-1594 Y1564A): as the sequence (Q8TDY2 1490-1594 K1569A) above, with Y75A, A80K counted along it
Description: as §1, §2

[7] = biological target: T7, FIP200 claw domain K1568A (Homo sapiens, UniProt Q8TDY2, K1568A); assay: ITC with FIP200 claw domain mutant K1568A; assay type: binding; settings: 20 °C, buffer B pH 7.0, fitted value ± error
T7 construct: human FIP200 claw domain1490–1594 was cloned; SUMO (N, cleaved yes); made in house; host or cells: Escherichia coli Rosetta (DE3)
T7 sequence (Q8TDY2 1490-1594 K1568A): as the sequence (Q8TDY2 1490-1594 K1569A) above, with K79A, A80K counted along it
Description: as §1, §2

[8] = biological target: T8, FIP200 claw domain (1490-1594) Q1566A (human, UniProt Q8TDY2 1490-1594, Q1566A); assay: ITC; peptide (4 mM) injected into FIP200 claw protein (0.25 mM); 20 °C; buffer B (50 mM NaH2PO4, 150 mM NaCl, pH 7.0); single binding site model; settings: both partners purified
T8 construct: source: E. coli Rosetta (DE3), purified (Ni-NTA, Superdex 200, HiTrap SP FF); not shown: SUMO, N-terminal, cleaved

[9] = biological target: T9, FIP200 claw domain (1490-1594) R1514A (human, UniProt Q8TDY2 1490-1594, R1514A); assay: as above; settings: both partners purified
T9 construct: source: E. coli Rosetta (DE3), purified (Ni-NTA, Superdex 200, HiTrap SP FF); not shown: SUMO, N-terminal, cleaved

[10] = biological target: T10, FIP200 claw domain (1490-1594) (human, UniProt Q8TDY2 1490-1594); assay: as above
T10 construct: the ITC N counts peptide per claw chain; also called FIP200 claw domain WT; WT; source: E. coli Rosetta (DE3), purified (Ni-NTA, Superdex 200, HiTrap SP FF); not shown: SUMO, N-terminal, cleaved

[11] = biological target: T11, FIP200 claw domain (1490-1594) D1516A (human, UniProt Q8TDY2 1490-1594, D1516A); assay: as above; settings: both partners purified
T11 construct: source: E. coli Rosetta (DE3), purified (Ni-NTA, Superdex 200, HiTrap SP FF); not shown: SUMO, N-terminal, cleaved

[12] = biological target: T12, human FIP200 claw domain (1490-1594) (human, UniProt Q8TDY2 1490-1594); assay: ITC
T12 chain: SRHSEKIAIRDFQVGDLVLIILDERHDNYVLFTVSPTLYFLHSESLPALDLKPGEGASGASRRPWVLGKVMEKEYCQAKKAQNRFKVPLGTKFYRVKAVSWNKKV

[13] = biological target: the molecule itself; assay: crystal structure; FIP200 claw and TNIP1 FIR peptide mixed at a 1:5 molar ratio, 15 mg/ml; vapor diffusion at 16 °C or 20 °C; molecular replacement
[14] = biological target: T13, FIP200 claw domain (1490-1594) K1568A (human, UniProt Q8TDY2 1490-1594, K1568A); assay: ITC; peptide (4 mM) injected into FIP200 claw protein (0.25 mM); 20 °C; buffer B (50 mM NaH2PO4, 150 mM NaCl, pH 7.0); single binding site model; settings: both partners purified
T13 construct: source: E. coli Rosetta (DE3), purified (Ni-NTA, Superdex 200, HiTrap SP FF); not shown: SUMO, N-terminal, cleaved

Molecule “human FIP200 claw domain (1490-1594) (from UniProt Q8TDY2) Q1566A” has a ratio to parent (TNIP1_pS123 peptide) of 0.79.

With SSGTSSEFEVV [TNIP1] the KD (FIP200 claw domain (WT)) was “no detectable binding affinity”.

In the case of “SSGTSSEFEVVTPEEQ [TNIP1^long, unmodified TNIP1 FIR peptide with an elongated C terminus]”, the KD (FIP200 claw domain (WT)) is reported as “Weak binding” and the “a0 (constant of Equation 3, y1 = 1/(1+a0[TNIP1]))” value [1] is reported as 0.0006 µM⁻¹.

For CC(C)[C@H](NC(=O)[C@@H](NC(=O)[C@H](CCC(=O)O)NC(=O)[C@H](Cc1ccccc1)NC(=O)[C@H](CCC(=O)O)NC(=O)[C@H](COP(=O)(O)O)NC(=O)[C@H](CO)NC(=O)[C@@H](NC(=O)CNC(=O)[C@H](CO)NC(=O)[C@@H](N)CO)[C@@H](C)O)C(C)C)C(=O)O [TNIP1_pS123] (H-SSGTS[pS]EFEVV-OH), the KD [2] was “significantly abolished”, the KD [3] was “significantly abolished” and the KD [4] was “significantly abolished”. For the same molecule, the KD [5] was “significantly abolished”, the KD [6] was “significantly abolished” and the KD [7] was “Weak binding”.

B1: TNIP1_pS123 peptide (peptide)
peptide: SSGTS[pS]EFEVV
notes: FIR motif of TNIP1; source: synthetic peptide (GL Biochem, Shanghai)
In the case of B1, the Kd [8] is reported as 126 µM, the “stoichiometry N” value [8] is reported as 1.49 and the Kd [9] is reported as 178 µM. For the same molecule, the “stoichiometry N” value [9] was 1.48, the stoichiometry N [10] was 1.01 and the Kd [11] was 175 µM. The “stoichiometry N” value [11] was 1.18 and the Kd [12] was 160 µM.

B2: pCCPG1 FIR2 peptide (peptide)
peptide: TASDD[pS]DIVTLEPPK
notes: FIR2 motif of the autophagy receptor CCPG1; source: synthetic peptide (GL Biochem, Shanghai)
B2 was tested, and the Kd ([10]; both partners purified) was 9.3 µM and the “stoichiometry N” value ([10]; both partners purified) was 1.1.

B3: human FIP200 claw domain (1490-1594) (domain or fragment, UniProt Q8TDY2 1490-1594, looked up)
chain: SRHSEKIAIRDFQVGDLVLIILDERHDNYVLFTVSPTLYFLHSESLPALDLKPGEGASGASRRPWVLGKVMEKEYCQAKKAQNRFKVPLGTKFYRVKAVSWNKKV
notes: Forms a homodimer in the crystals; source: E. coli Rosetta (DE3), purified (Ni-NTA, Superdex 200, HiTrap SP FF); not shown: SUMO, N-terminal, cleaved
B3: binds [13].

B4: CCPG1 FIR2 peptide (unmodified) (peptide)
peptide: TASDDSDIVTLEPPK
notes: as for B2
With B4 the Kd ([10]; both partners purified) was 84.3 µM and the “stoichiometry N” value ([10]; both partners purified) was 0.96.

SSGT[pS]SEFEVV [TNIP1_pS122 peptide] showed a stoichiometry N [10] of 0.96 and a Kd [12] of 260 µM.

Molecule SSGT[pS][pS]EFEVV [TNIP1_pS122pS123 peptide] has a stoichiometry N [10] of 1.33 and a Kd [12] of 195 µM.

B5: TNIP1_pS123^long peptide (peptide)
peptide: SSGTS[pS]EFEVVTPEEQ
notes: FIR motif of TNIP1 with an elongated C terminus (T129-Q133); source: synthetic peptide (GL Biochem, Shanghai)
With B5 the Kd [8] was 45 µM, the “stoichiometry N” value [8] was 0.96 and the Kd [9] was 43.8 µM. For the same molecule, the “stoichiometry N” value [9] was 0.97, the Kd ([10]; both partners purified) was 45.4 µM and the “stoichiometry N” value ([10]; both partners purified) was 1.03. For the same molecule, the Kd [14] was 133 µM, the “stoichiometry N” value [14] was 0.93 and the Kd [11] was 35 µM. For the same molecule, the “stoichiometry N” value [11] was 0.98.
